Measurements as given in patent publication US20150299268A1 (UNIVERSITY OF MARYLAND BALTIMORE, published 2015).

What was measured:
FLSC = molecular target: T1, FLSC (HIV-1, UniProt P01730 26-208); test: capture ELISA
T1 construct: not shown: linker of FLSC not described

BaL-gp120-E492A = molecular target: T2, BaL-gp120-E492A (HIV-1 BaL); test: capture ELISA
T2 construct: domain: gp120

BaL-gp120-S200A = molecular target: T3, BaL-gp120-S200A (HIV-1 BaL); test: capture ELISA
T3 construct: domain: gp120; also called 5200A

BaL-gp120-D57AD78A = molecular target: T4, BaL-gp120-D57AD78A (HIV-1 BaL); test: capture ELISA
T4 construct: domain: gp120

BaL-gp120-T455A = molecular target: T5, BaL-gp120-T455A (HIV-1 BaL); test: capture ELISA
T5 construct: domain: gp120

BaL-gp120 = molecular target: T6, BaL-gp120 (HIV-1 BaL); test: capture ELISA
T6 construct: domain: gp120; also called monomeric gp120; monomeric BaL gp120

BaL-gp120-F53A = molecular target: T7, BaL-gp120-F53A (HIV-1 BaL); test: capture ELISA
T7 construct: domain: gp120

BaL-gp120-S334A = molecular target: T8, BaL-gp120-S334A (HIV-1 BaL); test: capture ELISA
T8 construct: domain: gp120; glycan mutant

BaL-gp120-V75A = molecular target: T9, BaL-gp120-V75A (HIV-1 BaL); test: capture ELISA
T9 construct: domain: gp120

BaL-gp120-I420R = molecular target: T10, BaL-gp120-I420R (HIV-1 BaL); test: capture ELISA
T10 construct: domain: gp120; also called -1420R

BaL-gp120-R476AR480A = molecular target: T11, BaL-gp120-R476AR480A (HIV-1 BaL); test: capture ELISA
T11 construct: domain: gp120

BaL-gp120-L494A = molecular target: T12, BaL-gp120-L494A (HIV-1 BaL); test: capture ELISA
T12 construct: domain: gp120

BaL-gp120-E47AE91A = molecular target: T13, BaL-gp120-E47AE91A (HIV-1 BaL); test: capture ELISA
T13 construct: domain: gp120

BaL-gp120-K487AK490A = molecular target: T14, BaL-gp120-K487AK490A (HIV-1 BaL); test: capture ELISA
T14 construct: domain: gp120

BaL-gp120-K33A = molecular target: T15, BaL-gp120-K33A (HIV-1 BaL); test: capture ELISA
T15 construct: domain: gp120

BaL-gp120-K500A = molecular target: T16, BaL-gp120-K500A (HIV-1 BaL); test: capture ELISA
T16 construct: domain: gp120

BaL-gp120-E106AD107A = molecular target: T17, BaL-gp120-E106AD107A (HIV-1 BaL); test: capture ELISA
T17 construct: domain: gp120

BaL-gp120-V496A = molecular target: T18, BaL-gp120-V496A (HIV-1 BaL); test: capture ELISA
T18 construct: domain: gp120

BaL-gp120-D368R = molecular target: T19, BaL-gp120-D368R (HIV-1 BaL); test: capture ELISA
T19 construct: domain: gp120

BaL-gp120-T499A = molecular target: T20, BaL-gp120-T499A (HIV-1 BaL); test: capture ELISA
T20 construct: domain: gp120

BaL-gp120-R476A = molecular target: T21, BaL-gp120-R476A (HIV-1 BaL); test: capture ELISA
T21 construct: domain: gp120

BaL-gp120-D57AD62A = molecular target: T22, BaL-gp120-D57AD62A (HIV-1 BaL); test: capture ELISA
T22 construct: domain: gp120

BaL-gp120-S158A = molecular target: T23, BaL-gp120-S158A (HIV-1 BaL); test: capture ELISA
T23 construct: domain: gp120

BaL-gp120-K46A = molecular target: T24, BaL-gp120-K46A (HIV-1 BaL); test: capture ELISA
T24 construct: domain: gp120

BaL-gp120-P76A = molecular target: T25, BaL-gp120-P76A (HIV-1 BaL); test: capture ELISA
T25 construct: domain: gp120

BaL-gp120-W69A = molecular target: T26, BaL-gp120-W69A (HIV-1 BaL); test: capture ELISA
T26 construct: domain: gp120

BaL-gp120-D78A = molecular target: T27, BaL-gp120-D78A (HIV-1 BaL); test: capture ELISA
T27 construct: domain: gp120

BaL-gp120-I491A = molecular target: T28, BaL-gp120-I491A (HIV-1 BaL); test: capture ELISA
T28 construct: domain: gp120

BaL-gp120-V44A = molecular target: T29, BaL-gp120-V44A (HIV-1 BaL); test: capture ELISA
T29 construct: domain: gp120

BaL-gp120-H105A = molecular target: T30, BaL-gp120-H105A (HIV-1 BaL); test: capture ELISA
T30 construct: domain: gp120

[1] = molecular target: Env of HIV-1 virus 3817.v2.c59 (HIV-1); test: cell-based or functional assay
[2] = molecular target: Env of HIV-1 virus CAAN5342.A2 (HIV-1); test: cell-based or functional assay
[3] = molecular target: Env of HIV-1 virus 6540.v4.c1 (HIV-1); test: cell-based or functional assay
[4] = molecular target: Env of HIV-1 virus ZM53M.PB12 (HIV-1); test: cell-based or functional assay
[5] = molecular target: Env of HIV-1 virus Du422.1 (HIV-1); test: cell-based or functional assay
[6] = molecular target: Env of HIV-1 virus AC10.0.29 (HIV-1); test: cell-based or functional assay
[7] = molecular target: Env of HIV-1 virus SF162.LS (HIV-1); test: cell-based or functional assay
[8] = molecular target: Env of HIV-1 virus T250-4 (HIV-1); test: cell-based or functional assay
[9] = molecular target: Env of HIV-1 virus 6545.v4.c1 (HIV-1); test: cell-based or functional assay
[10] = molecular target: Env of HIV-1 virus 1006_11_C3_1601 (HIV-1); test: cell-based or functional assay
[11] = molecular target: Env of HIV-1 virus THRO4156.18 (HIV-1); test: cell-based or functional assay
[12] = molecular target: Env of HIV-1 virus 6535.3 (HIV-1); test: cell-based or functional assay
[13] = molecular target: Env of HIV-1 virus Du172.17 (HIV-1); test: cell-based or functional assay
[14] = molecular target: Env of HIV-1 virus BaL.26 (HIV-1); test: cell-based or functional assay

B1: N60-B1.1 (antibody, V domains shown)
VH: QLQLQESGPGLVKPSGTLSLTCSVSGGSMNGRNIYWAWIRQTPGKGLEWIGSVDVSDEDAGRTFYKWPIKSRASISADTSKNQFSLKLSSVTVADTGVYYCARETLYYVGNGYYYPLDVFYYNYYMDVWGKGTTVSVSS
VL: not shown
notes: also called bnAb N60-B1.1
Q: Which results are given for B1?
A: % Binding (FLSC): 10%; % Binding (BaL-gp120-E492A): 113%; % Binding (BaL-gp120-S200A): 22%; % Binding (BaL-gp120-D57AD78A): 103%; % Binding (BaL-gp120-T455A): 73%; % Binding (BaL-gp120): 100%; % Binding (BaL-gp120-F53A): 90%; % Binding (BaL-gp120-S334A): 91%; % Binding (BaL-gp120-V75A): 104%; % Binding (BaL-gp120-I420R): 22%; % Binding (BaL-gp120-R476AR480A): 5%; % Binding (BaL-gp120-L494A): 99%; % Binding (BaL-gp120-E47AE91A): 73%; % Binding (BaL-gp120-K487AK490A): 31%; % Binding (BaL-gp120-K33A): 76%; % Binding (BaL-gp120-K500A): 94%; % Binding (BaL-gp120-E106AD107A): 36%; % Binding (BaL-gp120-V496A): 107%; % Binding (BaL-gp120-D368R): 99%; % Binding (BaL-gp120-T499A): 102%; % Binding (BaL-gp120-R476A): 57%; % Binding (BaL-gp120-D57AD62A): 76%; % Binding (BaL-gp120-S158A): 3%; % Binding (BaL-gp120-K46A): 50%; % Binding (BaL-gp120-P76A): 102%; % Binding (BaL-gp120-W69A): 84%; % Binding (BaL-gp120-D78A): 108%; % Binding (BaL-gp120-I491A): 85%; % Binding (BaL-gp120-V44A): 114%; % Binding (BaL-gp120-H105A): 88%; IC50 Titer (ug/ml), neutralization [1]: 1.53 µg/mL; IC50 Titer (ug/ml), neutralization [2]: 0.019 µg/mL; IC50 Titer (ug/ml), neutralization [3]: 0.08 µg/mL; IC50 Titer (ug/ml), neutralization [4]: 0.019 µg/mL; IC50 Titer (ug/ml), neutralization [5]: 0.18 µg/mL; IC50 Titer (ug/ml), neutralization [6]: 0.14 µg/mL; IC50 Titer (ug/ml), neutralization [7]: 0.019 µg/mL; IC50 Titer (ug/ml), neutralization [8]: 0.019 µg/mL; IC50 Titer (ug/ml), neutralization [9]: 0.37 µg/mL; IC50 Titer (ug/ml), neutralization [10]: 0.07 µg/mL; IC50 Titer (ug/ml), neutralization [11]: 0.3 µg/mL; IC50 Titer (ug/ml), neutralization [12]: 0.019 µg/mL; IC50 Titer (ug/ml), neutralization [13]: 7.08 µg/mL; IC50 Titer (ug/ml), neutralization [14]: 0.019 µg/mL
